Results as given in patent US20240301086A1 (APTEVO RESEARCH AND DEVELOPMENT, published 2024).

Columns and labels:
[1] = molecular target: T1, Human PSMA ECD-AFH (TSC033), recombinant dimeric PSMA ECD (human, UniProt Q04609 44-750); experiment: SPR (Biacore), recombinant dimeric PSMA ECD
T1 construct: SEC-purified dimer; also called HuPSMA-AFH; Avi-His-Human PSMA ECD
Experimental: Mouse anti-human IgG (GE, BR-1008-39) at 25 μg/ml in 10 mM sodium acetate pH 5.0 was immobilized at a density of ˜2,000-4,000 response units (RU) onto each flow cell of a CM5 research-grade sensor chip (GE) by standard amine coupling chemistry. Each anti-PSMA protein at approximately 40 nM in dPBS with 0.2% BSA buffer was captured in a flow cell with the immobilized anti-human IgG at a flow rate of […] for up to 30 seconds, leaving one flow cell surface unmodified as the reference. Using a multi-cycle kinetics mode, a buffer blank and […] different concentrations of ECD ranging from 1 nM to 243 nM were sequentially injected through each flow cell at 30 μL/min with association times varying from 300-600 seconds and dissociation times varying from 600-1200 seconds. Regeneration was achieved by injection of 3 M MgCl₂ at a flow rate of 30 μL/min for up to 40 seconds followed by dPBS with 0.2% BSA buffer stabilization for 1 min.
The KD was determined for a set of PSMA×CD3 bispecific proteins binding to recombinant dimeric PSMA ECD using SPR. In comparison to the constructs analyzed in Table 3, which all had the anti-PSMA scFv in the VL-VH orientation, the constructs in Table 11 have sequences with the reverse the order of the variable domains. The constructs below utilize the PSMA01023 anti-PSMA sequence as a basis.

mIgG Fc-human PSMA ECD = molecular target: T2, mIgG Fc-human PSMA ECD (human); experiment: SPR (Biacore T200), bispecific amine-coupled, mFc-PSMA dimer 1-81 nM as analyte, 1:1 fit
T2 construct: Called PSMA dimer in the SPR method; also called mFc-Hu PSMA ECD; murine Fc-tagged human PSMA ECD
Experimental: SPR studies were performed on a subset of bispecific constructs binding to Human and cynomolgus primate PSMA ectodomain (ECD) fused to the c-terminus of a murine IgG1 Fc region. These experiments were conducted at 25° C. in dPBS (Gibco, 14040-133) with 0.2% BSA buffer on a Biacore T200 system. Bispecific constructs were immobilized at a density of ˜2,000-4,000 response units (RU) onto individual flow cells of a CM5 research-grade sensor chip (GE) by standard amine coupling chemistry, leaving one flow cell surface unmodified as the reference. Using a multi-cycle kinetics mode, a buffer blank and […] different concentrations of the PSMA dimer ranging from 1 nM to 81 nM in dPBS with 0.2% BSA were sequentially injected through each flow cell at 30 μL/min for 300 seconds followed by a 600 second dissociation phase. Regeneration was achieved by injection of 10 mM glycine pH 2.0 at a flow rate of 30 μL/min for 40 seconds followed by dPBS with 0.2% BSA buffer stabilization for 1 min.
Sensorgrams obtained from kinetic SPR measurements were analyzed by the double subtraction method. The signal from the reference flow cell was subtracted from the analyte binding response obtained from flow cells with captured ligands. The buffer blank response was then subtracted from analyte binding responses and the final double-referenced data were analyzed with Biacore T200 Evaluation software (2.0, GE), globally fitting data to derive kinetic parameters. All sensorgrams were fitted using a simple one-to-one binding model.

[2] = molecular target: T3, recombinant human FcRn/b2M complex (human, UniProt P55899 24-297; P61769 21-119, limits assumed); experiment: SPR at pH 6.0, hFcRn/b2M amine-coupled, construct 1-81 nM as analyte, two-state reaction model fit
T3 construct: also called hFcRn/b2M; neonatal Fc receptor
Experimental: Recombinant FcRn/b2M protein was generated via transient transfection of HEK-293 cells with a bi-cistronic vector containing the genes for both FcRn and […]. The complex was purified using IMAC chromatography and subsequently buffer exchanged into PBS buffer after verifying purity of the IMAC eluate by analytical SEC. Purified hFcRn/b2M at 5 μg/ml in 10 mM sodium acetate (pH 5.0) was immobilized on a CM5 chip by direct amine coupling chemistry to a level of ˜400 RU. A reference flow cell was left blank.
Different concentrations of the Fc variant protein (1-81 nM by 3-fold dilutions in HBS-EP+ with 0.2% BSA running buffer at pH 6.0) including running buffer as blank were injected in randomized order at 30 μL/min for 180 seconds followed by a 180 second dissociation period. Optimal regeneration was achieved by two injections of HBS-EP+ with 0.2% BSA at pH 7.5 at a flow rate of […] for 30 seconds followed by running buffer stabilization for 1 minute.
Sensorgrams obtained from kinetic SPR measurements were analyzed by the double subtraction method. […] Buffer reference was subtracted from analyte binding responses, and the final double-referenced data were analyzed with Biacore T200 Evaluation software (2.0, GE), globally fitting data to derive kinetic parameters. […]

T1 sequence (Q04609 other isoform, or with tags, fused parts or gaps): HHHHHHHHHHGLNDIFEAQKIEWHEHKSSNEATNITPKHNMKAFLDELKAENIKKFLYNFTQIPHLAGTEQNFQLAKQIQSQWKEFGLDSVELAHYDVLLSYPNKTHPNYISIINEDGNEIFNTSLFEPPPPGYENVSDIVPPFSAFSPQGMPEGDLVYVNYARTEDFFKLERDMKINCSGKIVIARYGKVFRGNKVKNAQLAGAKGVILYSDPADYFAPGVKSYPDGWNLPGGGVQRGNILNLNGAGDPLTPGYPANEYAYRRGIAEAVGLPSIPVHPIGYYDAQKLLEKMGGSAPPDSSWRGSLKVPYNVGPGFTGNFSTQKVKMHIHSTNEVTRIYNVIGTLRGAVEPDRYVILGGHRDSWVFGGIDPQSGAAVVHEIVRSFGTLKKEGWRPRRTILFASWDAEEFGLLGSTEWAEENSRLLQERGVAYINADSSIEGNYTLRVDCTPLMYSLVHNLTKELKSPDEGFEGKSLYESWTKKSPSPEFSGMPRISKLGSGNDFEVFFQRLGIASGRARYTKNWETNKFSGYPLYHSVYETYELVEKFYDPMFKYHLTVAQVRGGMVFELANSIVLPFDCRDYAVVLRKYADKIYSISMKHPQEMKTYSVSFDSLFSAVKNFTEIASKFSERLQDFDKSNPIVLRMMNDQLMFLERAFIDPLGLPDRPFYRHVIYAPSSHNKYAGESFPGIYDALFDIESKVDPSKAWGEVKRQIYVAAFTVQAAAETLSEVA
T3 sequence (P55899 24-297 limits assumed, chain 1 of 2): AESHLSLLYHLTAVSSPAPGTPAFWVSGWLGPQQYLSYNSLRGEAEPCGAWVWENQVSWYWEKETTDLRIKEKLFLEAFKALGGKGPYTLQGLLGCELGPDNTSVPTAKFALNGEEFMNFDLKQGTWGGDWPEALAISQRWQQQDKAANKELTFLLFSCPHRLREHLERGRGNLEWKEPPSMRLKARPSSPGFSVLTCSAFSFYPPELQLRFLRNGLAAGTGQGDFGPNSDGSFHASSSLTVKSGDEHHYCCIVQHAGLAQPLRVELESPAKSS
T3 sequence (P61769 21-119 limits assumed, chain 2 of 2): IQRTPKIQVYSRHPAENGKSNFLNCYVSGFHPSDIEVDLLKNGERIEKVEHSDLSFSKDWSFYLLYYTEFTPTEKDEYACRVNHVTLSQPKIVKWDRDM

Binder | Kd [1] [nM] | Kd (mIgG Fc-human PSMA ECD) [nM] | Kd [2] [nM]
PSMA01107 Anti-PSMA scFv x Fc x linker x Anti CD3 scFv; Anti PSMA scFv x Fc (bispecific antibody, Heterodimer, bivalent for PSMA and monovalent for CD3 (VH-VL scFv at the C-terminus); also called PSMA1107) chain 1: QVQLVQSGAEVKKPGASVKVSCKASGYTFTDYYMHWVRQAPGQGLEWMGYFNPYNDYTRYAQKFQGRVTMTRDTSTSTVYMELSSLRSEDTAVYYCARSDGYYDAMDYWGQGTTVTVSSGGGGSGGGGSGGGGSGGGGSDIQMTQSPSSLSASVGDRVTITCRASKSISKYLAWYQQKPGKAPKLLIHSGSSLESGVPSRFSGSGSGTEFTLTISSLQPDDFATYYCQQHIEYPWTFGQGTKVEIKEPKSSDKTHTCPPCPAPPAAAPSVFLFPPKPKDTLMISRTPEVTCVVVDVSHEDPEVKFNWYVDGVEVHNAKTKPREEQYNSTYRVVSVLTVLHQDWLNGKEYKCAVSNKALPAPIEKTISKAKGQPREPQVYTLPPSRDELTKNQVSLWCLVKGFYPSDIAVEWESNGQPENNYKTTPPVLDSDGSFFLYSKLTVDKSRWQQGNVFSCSVMHEALHNHYTQKSLSLSPGGGGSPSQVQLVQSGAEVKKPGASVKVSCKASGYTFTRSTMHWVRQAPGQGLEWIGYINPSSAYTNYAQKFQGRVTLTADKSTSTAYMELSSLRSEDTAVYYCASPQVHYDYNGFPYWGQGTLVTVSSGGGGSGGGGSGGGGSGGGGSDIQMTQSPSSLSASVGDRVTITCRASSSVSYMNWYQQKPGKAPKRWIYDSSKLASGVPSRFSGSGSGTDFTLTISSLQPEDFATYYCQQWSRNPPTFGQGTKVEIKRS chain 2: QVQLVQSGAEVKKPGASVKVSCKASGYTFTDYYMHWVRQAPGQGLEWMGYFNPYNDYTRYAQKFQGRVTMTRDTSTSTVYMELSSLRSEDTAVYYCARSDGYYDAMDYWGQGTTVTVSSGGGGSGGGGSGGGGSGGGGSDIQMTQSPSSLSASVGDRVTITCRASKSISKYLAWYQQKPGKAPKLLIHSGSSLESGVPSRFSGSGSGTEFTLTISSLQPDDFATYYCQQHIEYPWTFGQGTKVEIKEPKSSDKTHTCPPCPAPPAAAPSVFLFPPKPKDTLMISRTPEVTCVVVDVSHEDPEVKFNWYVDGVEVHNAKTKPREEQYNSTYRVVSVLTVLHQDWLNGKEYKCAVSNKALPAPIEKTISKAKGQPREPQVYTLPPSRDELTKNQVSLSCAVKGFYPSDIAVEWESNGQPENNYKTTPPVLDSDGSFFLVSKLTVDKSRWQQGNVFSCSVMHEALHNHYTQKSLSLSPG | < 10 | 3 | 47
PSMA01108 Anti-PSMA scFv x Fc x linker x Anti CD3 scFv; Anti PSMA scFv x Fc (bispecific antibody, also called PSMA1108; PSAM01108) chain 1: QVQLVQSGAEVKKPGASVKVSCKASGYTFTDYYMHWVRQAPGQGLEWMGYFNPYNDYTRYAQKFQGRVTMTRDTSTSTVYMELSSLRSEDTAVYYCARSDGYYDAMDYWGQGTTVTVSSGGGGSGGGGSGGGGSGGGGSDIQMTQSPSSLSASVGDRVTITCRASKSISKYLAWYQQKPGKAPKLLIHSGSSLESGVPSRFSGSGSGTEFTLTISSLQPDDFATYYCQQHIEYPWTFGQGTKVEIKEPKSSDKTHTCPPCPAPPAAAPSVFLFPPKPKDTLMISRTPEVTCVVVDVSHEDPEVKFNWYVDGVEVHNAKTKPREEQYNSTYRVVSVLTVLHQDWLNGKEYKCAVSNKALPAPIEKTISKAKGQPREPQVYTLPPSRDELTKNQVSLWCLVKGFYPSDIAVEWESNGQPENNYKTTPPVLDSDGSFFLYSKLTVDKSRWQQGNVFSCSVMHEALHNHYTQKSLSLSPGGGGSPSDIQMTQSPSSLSASVGDRVTITCRASSSVSYMNWYQQKPGKAPKRWIYDSSKLASGVPSRFSGSGSGTDFTLTISSLQPEDFATYYCQQWSRNPPTFGQGTKVEIKGGGGSGGGGSGGGGSGGGGSQVQLVQSGAEVKKPGASVKVSCKASGYTFTRSTMHWVRQAPGQGLEWIGYINPSSAYTNYAQKFQGRVTLTADKSTSTAYMELSSLRSEDTAVYYCASPQVHYDYNGFPYWGQGTLVTVSS chain 2: QVQLVQSGAEVKKPGASVKVSCKASGYTFTDYYMHWVRQAPGQGLEWMGYFNPYNDYTRYAQKFQGRVTMTRDTSTSTVYMELSSLRSEDTAVYYCARSDGYYDAMDYWGQGTTVTVSSGGGGSGGGGSGGGGSGGGGSDIQMTQSPSSLSASVGDRVTITCRASKSISKYLAWYQQKPGKAPKLLIHSGSSLESGVPSRFSGSGSGTEFTLTISSLQPDDFATYYCQQHIEYPWTFGQGTKVEIKEPKSSDKTHTCPPCPAPPAAAPSVFLFPPKPKDTLMISRTPEVTCVVVDVSHEDPEVKFNWYVDGVEVHNAKTKPREEQYNSTYRVVSVLTVLHQDWLNGKEYKCAVSNKALPAPIEKTISKAKGQPREPQVYTLPPSRDELTKNQVSLSCAVKGFYPSDIAVEWESNGQPENNYKTTPPVLDSDGSFFLVSKLTVDKSRWQQGNVFSCSVMHEALHNHYTQKSLSLSPG | < 10 |  | 19
